Positions count from the first letter of the chain named.
T1: cynomolgus monkey TL1A, soluble, E. coli-expressed, residues 72-251 of SEQ ID NO:248 (cynomolgus monkey (Macaca fascicularis), UniProt O95150 72-251 (human entry))
T1 construct: with or without N-terminal Met; also called MfTL1A (E. Coli)
T1 chain: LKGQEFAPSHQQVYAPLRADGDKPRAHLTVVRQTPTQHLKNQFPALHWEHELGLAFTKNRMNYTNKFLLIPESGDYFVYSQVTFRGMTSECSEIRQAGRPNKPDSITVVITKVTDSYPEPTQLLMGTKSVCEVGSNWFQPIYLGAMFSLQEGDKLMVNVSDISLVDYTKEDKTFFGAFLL

T2: Fhm, hTL1A(Q167R), soluble, E. coli-expressed, residues 72-251 of SEQ ID NO:246 (human, UniProt O95150 72-251)
T2 construct: with or without N-terminal Met
T2 chain: T1 chain with L39F, V78I, Q96R

T3: human TL1A, soluble, CHO-expressed, residues 72-251 of SEQ ID NO:244 with N-terminal His6-tag (human, UniProt O95150 72-251)
T3 construct: also called hTL1A; hTL1A (CHO)
T3 sequence: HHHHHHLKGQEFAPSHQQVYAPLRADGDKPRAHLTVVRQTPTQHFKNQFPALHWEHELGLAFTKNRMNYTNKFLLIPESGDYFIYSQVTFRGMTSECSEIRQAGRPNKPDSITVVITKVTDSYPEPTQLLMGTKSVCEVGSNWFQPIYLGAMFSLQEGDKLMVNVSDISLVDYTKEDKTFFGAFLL

T4: cynomolgus monkey TL1A, soluble, CHO-expressed, residues 72-251 of SEQ ID NO:248 with N-terminal His6-tag (cynomolgus monkey (Macaca fascicularis), UniProt O95150 72-251 (human entry))
T4 construct: also called MfTL1A; MfTL1A (CHO)
T4 chain: T3 sequence with F45L, I84V

B1: H4H1738P (antibody, human IgG4 S228P, V domains shown)
VH: EVQLVESGGALVKPGGSLRLSCAVSGFTFINDWMNWVRQAPGKGLEWVGRIKSTTDGGTTDDAAPVKGRFTISRDDSKNTLYLQMNSLKTEDTAVYYCTRDRNRQRNYFYDGMDVWGQGTTVTVSA
VL: DIVMTQSPVSLPVTPGEPASISCRSSQRLLHNNGNNYLDWYLQKPGQSPQLLIYLGSNRASGVPDRFSGSGSGTDFTLKVSRVEAEDVGVYYCMQALQTPYTFGQGTKLEIK
B2: H4H1745P (antibody, human IgG4 S228P, V domains shown)
VH: EVQLVESGGGLVQPGGSLRLSCAASGFTFSSYAMTWVRQAPGKGLEWVSGVSGRGGSTYYADSVKGRFTISRDNSKNTLYLQMNSLRAEDTAVYYCAYWDISSFDYWGQGTLVTVSS
VL: DIQLTQSPSFLSASVGDRVTITCWASQGISTYLAWYQQKPGKTPKLLIYAASTLQSGVPSRFSGSGSGTDFTLTISSLQPEDFATYYCQQFNSYPLTFGGGTKVEIK
B3: H4H1725P (antibody, human IgG4 S228P, V domains shown)
VH: QVQLVQSGAEVKKPGASVKVSCKASGYTFTGYYMHWVRQAPGQGLEWMGWIKPKSGGTNYVQKFQGRVTMTRDTSINTAYMELNNLKSDDTAVYYCATGGSQDASDFWGQGTMVTVSS
VL: DIQMTQSPSSVSASVGGRVTITCRASQDISIWLAWYQQKPGKAPNLLIYAASSLQSGVPSRFSGSGSGTDFTLTISSLQPEDFATYYCQQADSFPLTFGGGTKVEIK

How the values were obtained:
[1] = molecular target: T1, cynomolgus monkey TL1A, soluble, E. …; test: SPR 25C, mAb captured
How it was run: (§1)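 Biacore T100 SPR with captured mAb and soluble TL1A/Fhm analyte; ka and kd fitted to a 1:1 model assuming monomeric TL1A. KD = kd/ka; t1/2 (min) = ln2/(60·kd).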

[2] = molecular target: T2, Fhm, hTL1A(Q167R), soluble, E. …; test: SPR 25C, mAb captured
How it was run: as §1

[3] = molecular target: T3, human TL1A, soluble, CHO-expressed, …; test: ELISA, blocks hTL1A (150 pM) binding hDR3-Fc
How it was run: (§2)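 Competition sandwich ELISA: biotinylated CHO-expressed ligand (human TL1A, FHM Q167R variant, or cynomolgus TL1A) at fixed concentration preincubated with titrated antibody 1 h at 25 °C, then 1 h on hDR3-Fc or hDcR3-Fc coated wells. Bound ligand detected by streptavidin-HRP/TMB at 450 nm; sigmoidal dose-response fit.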

[4] = molecular target: T3, human TL1A, soluble, CHO-expressed, …; test: ELISA, blocks hTL1A (10 pM) binding hDcR3-Fc
How it was run: as §2

[5] = molecular target: T4, cynomolgus monkey TL1A, soluble, …; test: ELISA, blocks MfTL1A (500 pM) binding hDR3-Fc
How it was run: as §2

[6] = molecular target: T3, human TL1A, soluble, CHO-expressed, …; test: cell-based or functional assay
[7] = molecular target: T4, cynomolgus monkey TL1A, soluble, …; test: ELISA, blocks MfTL1A (50 pM) binding hDcR3-Fc
How it was run: as §2

[8] = molecular target: T4, cynomolgus monkey TL1A, soluble, …; test: SPR 37C, mAb captured
How it was run: as §1

Binder	Kd [1] [nM]	t1/2 [1] [min]	Kd [2] [nM]	t1/2 [2] [min]	IC50 [3] [nM]	IC50 [4] [nM]	IC50 [5] [nM]	Average % Blocking IFN-g, 3 ug/ml mAb [6] [%]	IC50 [7] [nM]	Kd [8] [nM]	t1/2 [8] [min]
B1	1.36	18	1.02	19	0.069	0.122	0.117	81	0.068	0.465	60
B2	0.141	221	0.115	226	0.018	0.058	0.05	91	0.118	0.173	124
B3	0.0637	292	0.0289	447	0.015	0.068	0.016	94	0.145	0.0177	888

Reference: patent US20140120109A1 (Regeneron, published 2014)
